This is an account of results in US20220281949A1 (UNIVERSITY HEALTH NETWORK, published 2022).

The target in the experiment is T1, soluble CD4 (sCD4): human CD4 extracellular domain fused with a 6×His tag via a GS linker (human, UniProt P01730 26-396).
T1 construct: Produced in HEK293T supernatant; for staining the monomer was dimerized with a PE-labeled anti-6×His mAb (AD1.1.10); also called dimerized sCD4
The experiment is described as follows: flow cytometry: K562 cells expressing the class II molecule stained with sCD4 dimerized by PE anti-His mAb. A general note: Flow cytometry measures light scatter and fluorescence of single cells or particles in a stream.

B1: wild-type DR1 (DRA1*01:01/DRB1*01:01) on K562 cells (peptide-MHC, human)
MHC II alpha: not shown
MHC II beta: not shown
notes: whole, on cells; Stably transduced in class II-deficient K562 cells
On to B1, for which the binding result was “no binding”.
